US20150010920

Columns and labels:
[1] = test system: EGFP-Thr1 (EGFP-E-III-F-N188R)
[2] = test system: EGFP-T/C1 (EGFP-E-III-F-172)
[3] = test system: EGFP-Thr1f (EGFP-E-III-F-FNPRSF)
[4] = test system: EGFP-Thr1e (EGFP-E-III-F-FNPRGF)
[5] = test system: EGFP-cas3-1 (also called EGFP-EF172cas)

With thrombin as the substance, how does the Km (µM); 50 mM Tris, 150 mM NaCl, 2.5 mM CaCl2, pH 8.0 [1] read?
Its Km (µM); 50 mM Tris, 150 mM NaCl, 2.5 mM CaCl2, pH 8.0 is 20.9 µM.

What about the kcat (s^-1); 50 mM Tris, 150 mM NaCl, 2.5 mM CaCl2, pH 8.0 [1] of the same substance?
Its kcat (s^-1); 50 mM Tris, 150 mM NaCl, 2.5 mM CaCl2, pH 8.0 is 0.057 s⁻¹.

And the kcat/Km (M^-1 s^-1); 50 mM Tris, 150 mM NaCl, 2.5 mM CaCl2, pH 8.0 [1]?
The kcat/Km (M^-1 s^-1); 50 mM Tris, 150 mM NaCl, 2.5 mM CaCl2, pH 8.0 was 2770 M⁻¹ s⁻¹.

And the “optical change / cleavage (absorbance at 397 nm, SDS-PAGE, MALDI-MS)” value [2]?
The value was “this sensor was not cleaved by thrombin and protease type X”.

What about the Km (µM); 50 mM Tris, 150 mM NaCl, 2.5 mM CaCl2, pH 8.0 [3] of the same substance?
Its Km (µM); 50 mM Tris, 150 mM NaCl, 2.5 mM CaCl2, pH 8.0 is 2.86 µM.

And the “fold change in Km compared to the thrombin sensor with cleavage linker (Gly-Arg-Gly)” value [3]?
The value was “Km has great decrease with 10 folds”.

What about the “fold change in kcat compared to the thrombin sensor with cleavage linker (Gly-Arg-Gly)” value [3] of the same substance?
Its value is “kcat, has significant increase with 5 folds”.

What about the “fold change in kcat/Km compared to the thrombin sensor with cleavage linker (Gly-Arg-Gly)” value [3] of the same substance?
Its value is “substrate specificity (kcat/Km) of these four thrombin sensor variants is resulted in 50-fold increase”.

And the kcat (s^-1); 50 mM Tris, 150 mM NaCl, 2.5 mM CaCl2, pH 8.0 [3]?
The kcat (s^-1); 50 mM Tris, 150 mM NaCl, 2.5 mM CaCl2, pH 8.0 was 0.23 s⁻¹.

What about the kcat/Km (M^-1 s^-1); 50 mM Tris, 150 mM NaCl, 2.5 mM CaCl2, pH 8.0 [3] of the same substance?
Its kcat/Km (M^-1 s^-1); 50 mM Tris, 150 mM NaCl, 2.5 mM CaCl2, pH 8.0 is 80200 M⁻¹ s⁻¹.

What about the Km (µM); 50 mM Tris, 150 mM NaCl, 2.5 mM CaCl2, pH 8.0 [4] of the same substance?
The Km (µM); 50 mM Tris, 150 mM NaCl, 2.5 mM CaCl2, pH 8.0 was 2.81 µM.

And the “fold change in Km compared to the thrombin sensor with cleavage linker (Gly-Arg-Gly)” value [4]?
Its value is “Km has great decrease with 10 folds”.

And the “fold change in kcat compared to the thrombin sensor with cleavage linker (Gly-Arg-Gly)” value [4]?
The value was “kcat, has significant increase with 5 folds”.

What about the “fold change in kcat/Km compared to the thrombin sensor with cleavage linker (Gly-Arg-Gly)” value [4] of the same substance?
Its value is “substrate specificity (kcat/Km) of these four thrombin sensor variants is resulted in 50-fold increase”.

And the kcat (s^-1); 50 mM Tris, 150 mM NaCl, 2.5 mM CaCl2, pH 8.0 [4]?
The kcat (s^-1); 50 mM Tris, 150 mM NaCl, 2.5 mM CaCl2, pH 8.0 was 0.29 s⁻¹.

And the kcat/Km (M^-1 s^-1); 50 mM Tris, 150 mM NaCl, 2.5 mM CaCl2, pH 8.0 [4]?
The kcat/Km (M^-1 s^-1); 50 mM Tris, 150 mM NaCl, 2.5 mM CaCl2, pH 8.0 was 105000 M⁻¹ s⁻¹.

How did the “cleavage; 50 mM HEPES buffer with 10% sucrose” value [5] turn out when active caspase-3 was run?
Its value is “the cleavage effect was very weak and the cleavage reaction slow”.
